Common to all, as to assay: cell_activity
Series [1] has as its system nlsCre recombinase from intron-containing gene (inlscre) S2A (Bacteriophage P1). Particulars: pBS210 excision in Nicotiana plumbaginifolia protoplasts, 72 h; also in planta excision in tobacco from pBS229.
Series [2] concerns Cre recombinase S2A (Bacteriophage P1). Particulars: pBS210 excision in Nicotiana plumbaginifolia protoplasts, 72 h; pBS210 alone 0.
In series [3] the test system is nlsCre recombinase S2A (Bacteriophage P1). Particulars: pBS210 excision in Nicotiana plumbaginifolia protoplasts, 72 h; pBS210 alone 0.

Take “loxP sites in direct repeat (pBS210, pBS229)”: the activity (GUS units/25 ug protein) amounted to 51 in series [1], 133 in series [2] and 141 in series [3].

The record behind these values is patent US20020147168.
